Read-outs that look alike come from different tables or passages of the source.
T1: 4H850-bA
T1 chain: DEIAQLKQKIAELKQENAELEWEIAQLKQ

T2: 4H906-bA
T2 chain: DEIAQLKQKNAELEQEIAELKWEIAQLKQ

T3: 4H335-AA
T3 chain: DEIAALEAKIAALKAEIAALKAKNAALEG

T4: 4H342-AA
T4 chain: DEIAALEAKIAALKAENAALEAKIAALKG

T5: 4H3427-AA
T5 chain: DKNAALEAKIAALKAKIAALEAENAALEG

T6: 4H3627-AA
T6 chain: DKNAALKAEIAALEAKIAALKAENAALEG

T7: 4H3655-AA
T7 chain: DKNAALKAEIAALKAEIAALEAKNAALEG

T8: 4H3844-AA
T8 chain: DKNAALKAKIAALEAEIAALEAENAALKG

T9: 4H3921-AA
T9 chain: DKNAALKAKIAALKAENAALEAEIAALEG

T10: 4H429-AA
T10 chain: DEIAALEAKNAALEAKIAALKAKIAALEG

T11: 4H454-AA
T11 chain: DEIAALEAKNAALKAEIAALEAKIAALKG

T12: 4H566-AA
T12 chain: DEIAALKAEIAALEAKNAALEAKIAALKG

T13: 4H605-AA
T13 chain: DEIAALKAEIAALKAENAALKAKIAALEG

T14: 4H678-AA
T14 chain: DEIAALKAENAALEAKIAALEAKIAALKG

T15: 4H717-AA
T15 chain: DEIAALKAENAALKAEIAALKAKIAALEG

T16: 4H780-AA
T16 chain: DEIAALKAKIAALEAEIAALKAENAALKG

T17: 4H794-AA
T17 chain: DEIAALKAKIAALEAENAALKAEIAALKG

T18: 4H881-AA
T18 chain: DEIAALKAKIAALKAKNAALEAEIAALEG

T19: 4H906-AA
T19 chain: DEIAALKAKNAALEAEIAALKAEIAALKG

T20: 4H993-AA
T20 chain: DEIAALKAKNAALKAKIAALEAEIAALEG

T21: 4H3165-AA
T21 chain: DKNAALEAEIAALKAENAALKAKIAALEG

T22: 4H3381-AA
T22 chain: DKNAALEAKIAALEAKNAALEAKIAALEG

T23: 4H3395-AA
T23 chain: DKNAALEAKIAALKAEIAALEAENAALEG

T24: 4H3410-AA
T24 chain: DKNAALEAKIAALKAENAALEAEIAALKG

T25: 4H3590-AA
T25 chain: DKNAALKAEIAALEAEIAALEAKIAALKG

T26: 4H3697-AA
T26 chain: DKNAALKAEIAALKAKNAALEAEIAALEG

T27: 4H3753-AA
T27 chain: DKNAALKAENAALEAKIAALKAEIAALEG

T28: 4H3865-AA
T28 chain: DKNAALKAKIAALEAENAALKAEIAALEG

T29: 4H458-AA
T29 chain: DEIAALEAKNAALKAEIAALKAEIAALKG

T30: 4H485-AA
T30 chain: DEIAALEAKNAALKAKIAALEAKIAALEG

T31: 4H536-AA
T31 chain: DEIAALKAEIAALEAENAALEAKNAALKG

T32: 4H570-AA
T32 chain: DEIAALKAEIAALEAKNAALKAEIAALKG

T33: 4H629-AA
T33 chain: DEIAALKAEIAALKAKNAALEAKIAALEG

T34: 4H710-AA
T34 chain: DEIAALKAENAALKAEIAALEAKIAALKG

T35: 4H745-AA
T35 chain: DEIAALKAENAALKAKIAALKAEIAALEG

T36: 4H797-AA
T36 chain: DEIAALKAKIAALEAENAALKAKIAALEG

T37: 4H850-AA
T37 chain: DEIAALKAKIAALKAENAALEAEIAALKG

T38: 4H891-AA
T38 chain: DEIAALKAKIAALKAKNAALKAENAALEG

T39: 4H909-AA
T39 chain: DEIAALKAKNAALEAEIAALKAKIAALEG

T40: 4H930-AA
T40 chain: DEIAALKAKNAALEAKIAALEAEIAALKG

T41: 4H94-AA
T41 chain: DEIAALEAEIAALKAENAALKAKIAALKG

T42: 4H432-AA
T42 chain: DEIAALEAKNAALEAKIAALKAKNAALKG

T43: 4H446-AA
T43 chain: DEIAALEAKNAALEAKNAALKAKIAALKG

T44: 4H63-AA
T44 chain: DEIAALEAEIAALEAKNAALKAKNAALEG


Assays:
4H850-bA = target: T1, 4H850-bA; assay: two-hybrid library CCNG1;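 further: natural log of median RNA to DNA barcode read ratio; higher means stronger binding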
4H906-bA = target: T2, 4H906-bA; assay: two-hybrid library CCNG1;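 further: natural log of median RNA to DNA barcode read ratio; higher means stronger binding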
4H335-AA = target: T3, 4H335-AA; assay: two-hybrid library CCmax;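 further: natural log of median RNA to DNA barcode read ratio; higher means stronger binding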
4H342-AA = target: T4, 4H342-AA; assay: two-hybrid library CCmax; conditions: mean of both orientations;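 further: natural log of median RNA to DNA barcode read ratio; higher means stronger binding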
4H3427-AA = target: T5, 4H3427-AA; assay: two-hybrid library CCmax; conditions: mean of both orientations
4H3627-AA = target: T6, 4H3627-AA; assay: two-hybrid library CCmax; conditions: mean of both orientations
4H3655-AA = target: T7, 4H3655-AA; assay: two-hybrid library CCmax; conditions: mean of both orientations
4H3844-AA = target: T8, 4H3844-AA; assay: two-hybrid library CCmax; conditions: mean of both orientations
4H3921-AA = target: T9, 4H3921-AA; assay: two-hybrid library CCmax; conditions: mean of both orientations
4H429-AA = target: T10, 4H429-AA; assay: two-hybrid library CCmax; conditions: mean of both orientations
4H454-AA = target: T11, 4H454-AA; assay: two-hybrid library CCmax; conditions: mean of both orientations
4H566-AA = target: T12, 4H566-AA; assay: two-hybrid library CCmax; conditions: mean of both orientations
4H605-AA = target: T13, 4H605-AA; assay: two-hybrid library CCmax; conditions: mean of both orientations
4H678-AA = target: T14, 4H678-AA; assay: two-hybrid library CCmax; conditions: mean of both orientations
4H717-AA = target: T15, 4H717-AA; assay: two-hybrid library CCmax; conditions: mean of both orientations
4H780-AA = target: T16, 4H780-AA; assay: two-hybrid library CCmax; conditions: mean of both orientations
4H794-AA = target: T17, 4H794-AA; assay: two-hybrid library CCmax; conditions: mean of both orientations
4H881-AA = target: T18, 4H881-AA; assay: two-hybrid library CCmax; conditions: mean of both orientations
4H906-AA = target: T19, 4H906-AA; assay: two-hybrid library CCmax; conditions: mean of both orientations
4H993-AA = target: T20, 4H993-AA; assay: two-hybrid library CCmax; conditions: mean of both orientations
4H3165-AA = target: T21, 4H3165-AA; assay: two-hybrid library CCmax
4H3381-AA = target: T22, 4H3381-AA; assay: two-hybrid library CCmax; conditions: mean of both orientations
4H3395-AA = target: T23, 4H3395-AA; assay: two-hybrid library CCmax
4H3410-AA = target: T24, 4H3410-AA; assay: two-hybrid library CCmax; conditions: mean of both orientations
4H3590-AA = target: T25, 4H3590-AA; assay: two-hybrid library CCmax; conditions: mean of both orientations
4H3697-AA = target: T26, 4H3697-AA; assay: two-hybrid library CCmax; conditions: mean of both orientations
4H3753-AA = target: T27, 4H3753-AA; assay: two-hybrid library CCmax; conditions: mean of both orientations
4H3865-AA = target: T28, 4H3865-AA; assay: two-hybrid library CCmax; conditions: mean of both orientations
4H458-AA = target: T29, 4H458-AA; assay: two-hybrid library CCmax; conditions: mean of both orientations
4H485-AA = target: T30, 4H485-AA; assay: two-hybrid library CCmax; conditions: mean of both orientations
4H536-AA = target: T31, 4H536-AA; assay: two-hybrid library CCmax; conditions: mean of both orientations
4H570-AA = target: T32, 4H570-AA; assay: two-hybrid library CCmax; conditions: mean of both orientations
4H629-AA = target: T33, 4H629-AA; assay: two-hybrid library CCmax; conditions: mean of both orientations
4H710-AA = target: T34, 4H710-AA; assay: two-hybrid library CCmax; conditions: mean of both orientations
4H745-AA = target: T35, 4H745-AA; assay: two-hybrid library CCmax; conditions: mean of both orientations
4H797-AA = target: T36, 4H797-AA; assay: two-hybrid library CCmax; conditions: mean of both orientations
4H850-AA = target: T37, 4H850-AA; assay: two-hybrid library CCmax; conditions: mean of both orientations
4H891-AA = target: T38, 4H891-AA; assay: two-hybrid library CCmax; conditions: mean of both orientations
4H909-AA = target: T39, 4H909-AA; assay: two-hybrid library CCmax; conditions: mean of both orientations
4H930-AA = target: T40, 4H930-AA; assay: two-hybrid library CCmax; conditions: mean of both orientations
4H94-AA = target: T41, 4H94-AA; assay: two-hybrid library CCmax; conditions: mean of both orientations
4H432-AA = target: T42, 4H432-AA; assay: two-hybrid library CCmax
4H446-AA = target: T43, 4H446-AA; assay: two-hybrid library CCmax; conditions: mean of both orientations
4H63-AA = target: T44, 4H63-AA; assay: two-hybrid library CCmax; conditions: mean of both orientations

Binder | interaction score (4H3410-AA) | interaction score (4H3590-AA) | interaction score (4H3697-AA) | interaction score (4H3753-AA) | interaction score (4H3865-AA) | interaction score (4H458-AA) | interaction score (4H485-AA) | interaction score (4H536-AA) | interaction score (4H570-AA) | interaction score (4H629-AA) | interaction score (4H710-AA) | interaction score (4H745-AA) | interaction score (4H797-AA) | interaction score (4H850-AA) | interaction score (4H891-AA) | interaction score (4H909-AA) | interaction score (4H930-AA) | interaction score (4H94-AA) | other results
DEIAQLKQKIAELKQENAELEWEIAQLKQ [4H850-bA] |  |  |  |  |  |  |  |  |  |  |  |  |  |  |  |  |  |  | interaction score (4H850-bA): 0.428; interaction score (4H906-bA): -1.27
DEIAALEAKIAALKAEIAALKAKNAALEG [4H335-AA] |  |  |  |  |  |  |  |  |  |  |  |  |  |  |  |  |  |  | interaction score (4H335-AA): 1.81; interaction score (4H342-AA): -0.154; interaction score (4H3427-AA): -0.982; interaction score (4H3627-AA): 1.23; interaction score (4H3655-AA): 0.662; interaction score (4H3844-AA): 1.22; interaction score (4H3921-AA): -0.804; interaction score (4H429-AA): -0.695; interaction score (4H454-AA): 0.512; interaction score (4H566-AA): -1.09; interaction score (4H605-AA): -1.51; interaction score (4H678-AA): -1.15; interaction score (4H717-AA): -1.46; interaction score (4H780-AA): -0.326; interaction score (4H794-AA): -1.3; interaction score (4H881-AA): -1.54; interaction score (4H906-AA): -1.22; interaction score (4H993-AA): -0.48
DEIAALEAKNAALEAKIAALKAKNAALKG [4H432-AA] |  |  |  |  |  |  |  |  |  |  |  |  |  |  |  |  |  |  | interaction score (4H432-AA): -1.51; interaction score (4H446-AA): -1.7; interaction score (4H63-AA): -1.92

Further lines, with some results ahead:

interaction score (4H3410-AA) | interaction score (4H3590-AA) | interaction score (4H3697-AA) | interaction score (4H3753-AA) | interaction score (4H3865-AA) | interaction score (4H458-AA) | interaction score (4H485-AA) | interaction score (4H536-AA) | interaction score (4H570-AA) | interaction score (4H629-AA) | interaction score (4H710-AA) | interaction score (4H745-AA) | interaction score (4H797-AA) | interaction score (4H850-AA) | interaction score (4H891-AA) | interaction score (4H909-AA) | interaction score (4H930-AA) | interaction score (4H94-AA) | Binder | other results
-0.394 | -0.944 | -0.699 | -1.55 | -0.353 | -1.24 | -1.05 | -1.27 | -1.57 | -0.975 | -1.07 | -0.851 | -0.547 | -0.685 | -1.63 | -1.43 | -1.79 | 0.996 | DKNAALEAEIAALKAENAALKAKIAALEG [4H3165-AA] | interaction score (4H3165-AA): 1.88; interaction score (4H3381-AA): -1.72; interaction score (4H3395-AA; mean of both orientations): -1.37
-1.06 | 0.738 | -1.79 | -0.825 | -1.79 | -1.44 | -1.67 | -1.14 | -0.846 | -1.64 | -1.32 | -1.46 | -1.43 | -1.34 | 0.496 | -1.83 | -1.33 | -0.52 | DKNAALEAKIAALKAEIAALEAENAALEG [4H3395-AA] | interaction score (4H3395-AA): 0.0829

Reference: PMC10397247
